Experimental data reported in the DeepSol protein solubility set.

Test: soluble on expression in E. coli; label from the status in PepcDB or PDB records

**Q.** Which “soluble on expression in E. coli” value does the source give for “MGSDKIHHHHHHMIDPDDMDHCRHAIREGSYSFHAASKLLPSSVRDPALALYAFCRLADDEVDFGADKPAAVLALSERLEHAYQGRPRNHPTDRAFTAMIEEFDMPRALPEALLEGLAWDGMERRYATLSDLRSYSARVASAVGAMMCVLMRVRDEQALARACDLGVAMQLTNIARDVGEDAAERRLYLPTDWLEEEGIDIERLFTSPVSSPRLKRLTKRLLAEAHKLYLKSEPGIGRLPLAARPGIFAARHCYDAIGRNLAQHGYDNVNRRATTTGGHKMRLLGLSIVRAGLASILPESPVIFARPLPETAFLVEAAAHPAPNKDAWSDPLLSVLSQLKAQDRPHAAE” here?
**A.** not soluble

**Q.** For “MGSDKIHHHHHHMPFDDIQCSPLLVRDGTDNIMQVLSDTDKPTASAQRDMPQEFLPPRCTFSAEDWRILARQWYPVARSVDVKSSPVAVTLLDLELVTYRTPAGVHVARDLCPHRGVPLSMGCVEGDELVCAYHGLRYAADGQCRKIPAQPELKPSAKFRLTVFPAVERYGLVWTCLNPQGGEANLPPMPSWGDPLCQSILPPFVDIAGSAGRQVEGFVDVAHFAFVHHDAFADRNRPEVPMYQTEFTDFGLRTEYWSNVSNYPKALQHLAPDDFSWLRVYEIYPPFCARLTVHFPNEGRLNILNAASPVSARKTRLFVPITRNFDTTGSLDDVYAFNAQIFAEDQAIVERQRPEDLPLDMQAEAHFAADRTSVGYRRLLREMGLTMAYAG”, which “soluble on expression in E. coli” value is on record?
**A.** not soluble

**Q.** Which “soluble on expression in E. coli” value does the source give for “MSLAEINKNEVDIVIGALNADLTQFLTSWRPFFSGFHLIVVKDPELKEELNIPEGFDVDVYSKTDMEKVVGASNSTMFSGYSCRYFGYLVSKKKYIVSIDDDCVPAKDPKGFLVDAVTQHVINLENPATPLFFNTLYDPYCEGADFVRGYPFSLRSGVPCAASCGLWLNLADLDAPTQALKTEKRNTAYVDAVMTVPAKAMLPISGINIAFNRELVGPALVPALRLAGEGKVRWETLEDVWCGMCLKHISDHLGYGVKTGLPYVWRNERGDAVESLRKKWEGMKLMEKSVPFFDSLKLPETALKVEDCVIELAKAVKEQLGSDDPAFTQAADAMVKWVQLWNSVNSSA” here?
**A.** soluble

**Q.** Which “soluble on expression in E. coli” value does the source give for “SLDRLYAKAMKSKYTKLLLENFLLSPYEMTDPAIMAGLQKNVYPKYDELKTLRGLEGVKKHLSYVREKQEPYSKGNIAKYLKKAIEQYLPTVKRQDID” here?
**A.** soluble

**Q.** With “MSLKTFLESLKFPVQEVNKKSSGEKGPGRPPYWEMVFYWTRKPLVGARSVIAGALLPENVDENLFKAAVRLSSPTPHRENPQIPAEFAKYFEGKKLLDPFAGFGSIPLEGLRLGLDVTAVELLPTTYIFLKAVLEYPKKFGKSLVKDVERWGEWITEQLKNDPEIRELYDDDVAVYIGTWEIRCPHCGRWTPAIGNFWLARVKEGHHHHHH” as the sequence, how does the “soluble on expression in E. coli” value read?
**A.** soluble

**Q.** For “MSLDNNIKIIPFGGVRENGKNMYAVEIEDQIFILDTGLKYPENELMGIDVVIPDWEYLREHKDKIVGVFLTHGHADSIGALPYFLMDFNVPVFGSEMTIALAKLAVKNHKEVKKFNDFHVVDASTAIDFNDVTVSFFQTTHTIPETLGVVLETKAGNIVYTGDFKFDQTAKKGYQTDLARLAEIGSQGVLALLSDSAGAGITGASAREQDIGDYIKETFKYQNGRIIVASVASNIMRVQQIINAAVAVGRKIVLSGKDIEQIIDTAMSLGKLHLPDDLFISRKEAEKLEPNQVVILETGKMGEPIKSLQQIANGDNPNLQLTSTDLVFVTTTPSYAQETEVQKTKDMIYRTGAEVKFISDDLNPSGHANQNDEQLMLNFMKPKFFIPIQGEYRLLDRHAELAEEVGIPKENIFLVNKGDVLTYKNGKFHVGEHIDVSNTMIDGTGVGDIGNIVLRDRRVLSEDGIFVVVATIDRKKKKIVARPQITSRGFVFVKTNRQLMQQSADLVEKIVQENLDQKEFDWSHLKQDVRDKLNRFLFDQTKRHPVILPVIMEINQHQKKIKNEGHHHHHH”, which “soluble on expression in E. coli” value is on record?
**A.** soluble

**Q.** Which “soluble on expression in E. coli” value does the source give for “EALYVAGYLALYSKDEGELNITPEIVRSALPPTSKIPINIDHRKDCVVGEVIAIIEDIRGPFFLGIVRCPQLHAVLFEAAHSNFFGNRDSVLSPLERALYLVTNYLPSVSLSSKRLSPNEIPDGNFFTHVALCVVGRRVGTVVNYDCTPESSIEPFRVLSMESKARLLSLVKDYAGLNKVWKVSEDKLAKVLLSTAVNNMLLRDRWDVVAKRRREAGIMGH” here?
**A.** soluble

**Q.** With “MKRILVVFLMLAIILAGCSNKGEKYQKDIDKVYKEQNQMNKIASKVQNTIKTDIKQEDSNTHVYKDGKVIVIGIQLYKDREKMYYFAYEIKDGKAEINREIDPIKYMKDHKADYEDENVEVEKDMAGDPLEHHHHHH” as the sequence, how does the “soluble on expression in E. coli” value read?
**A.** not soluble

**Q.** Which “soluble on expression in E. coli” value does the source give for “MEESDVLISLIEILKIHQKVIDYDKFKDPEDYTPAIRSLATLELMFEYLIKESNTIFENAAVIVYTIVAKHPFFNGNKRTGYEAMNFIIEDGGYGFTSTDEEMIEFIIRVATTENEMSIEEIKEWIIRHTEKILLEHHHHHH” here?
**A.** soluble

**Q.** Which “soluble on expression in E. coli” value does the source give for “MNWAKFRETGSPEDTDMSSTPISSDTTAVSKVIDPNYVLMVADFFKAISPDESCNDFTSFDSFSVLFQNNTRALSIARGRVSCSVTVTPGISNFFKGLHGGAVASIAERVAMACVKTVVSEDKHLFIGELSMSYLSSAPISSELLVEGTVVRTGRNLSVVTVEFKIKETMKVTYLSRATFYHSPISKL” here?
**A.** not soluble

**Q.** For “MKIAIFSKLTIKEDEIRKKLGNYDVDIFPPIKRGDLTSEKIFDYDIIGIIDGCFLQSTAVAHREILKVIENNITVFGAGSMGALRASELDTCGMIGVGLVYNLYKNGIISDDDEVAVTFDDNLNQITFSMISFREMIKNALNEKIIDEDDSKRLINSGKELYYPLRTFENVIEKSKISGEKREVLEKFLKNQPDIKRNDAFEMLEEIIKYIEKQ”, which “soluble on expression in E. coli” value is on record?
**A.** not soluble

**Q.** Which “soluble on expression in E. coli” value does the source give for “MAEMDERFQQILSWQQMDQNKAISQILQESAMQKAAFEALQVKKDLMHRQIRSQIKLIETELLQLTQLELKRKSLDTESLQEMISEQRWALSSLLQQLLKEKQQREEELREILTELEAKSETRQENYWLIQYQRLLNQKPLSLKLQEEGMERQLVALLEELSAEHYLPIFAHHRLSLDLLSQMSPGDLAKVGVSEAGLQHEILRRVQELLDAARIQPELKPPMGEVVTPTAPQEPPESVRPSAPPAELEVQASECVVCLEREAQMIFLNCGHVCCCQQCCQPLRTCPLCRQDIAQRLRIYHSS” here?
**A.** soluble

**Q.** With “AEVYNKDGNKLDLYGKVDGLHYFSDDKSVDGDQTYMRLGFKGETQVTDQLTGYGQWEYQIQGNAPESENNSWTRVAFAGLKFQDIGSFDYGRNYGVVYDVTSWTDVLPEFGGDTYGSDNFMQQRGNGFATYRNTDFFGLVDGLNFAVQYQGQNGSVSGENDPDFTGHGITNNGRKALRQNGDGVGGSITYDYEGFGVGAAVSSSKRTWDQNNTGLIGTGDRAETYTGGLKYDANNIYLAAQYTQTYNATRVGSLGWANKAQNFEAVAQYQFDFGLRPSVAYLQSKGKNLGVVAGRNYDDEDILKYVDVGATYYFNKNMSTYVDYKINLLDDNQFTRAAGINTDDIVALGLVYQF” as the sequence, how does the “soluble on expression in E. coli” value read?
**A.** soluble

**Q.** With “MGHHHHHHSHMPARTDSVIIADQTPTPTRFLKNCEEVGLFNELASSFEHEFKKAADEDEKKARSRTVAKKLVAAAGPLDMSLPSTPDIKIKEEEPVEVDSSPPDSPASSPCSPPLKEKEVTPKPVLISTPTPTIVRPGSLPLHLGYDPLHPTLPSPTSVITQAPPSNRQMGSPTGSLPLVMHLANGQTMPVLPGPPVQMPSVISLARPVSMVPNIPGIPGPPVNSSGSISPSGHPIPSEAKMRLKATLTHQVSSINGGCGMVVGTASTMVTARPEQSQILIQHPDAPSPAQPQVSPAQPTPSTGGRRRRTVDEDPDERRQRFLERNRAAASRCRQKRKLWVSSLEKKAEELTSQNIQLSNEVTLLRNEVAQLKQLLLAHKDCPVTALQKKTQGYLESPKESSEPTGSPAPVIQHSSATAPSNGLSVRSAAEAVATSVLTQMA” as the sequence, how does the “soluble on expression in E. coli” value read?
**A.** soluble

**Q.** For “GPKDNNKTLKPAIAEYIVKKAKQRIALQRWQDELNRRKNHKGMIFVENTVDLEGPPSDFYYINEYKPAPGISLVNEATFGCSCTDCFFQKCCPAEAGVLLAYNKNQQIKIPPGTPIYECNSRCQCGPDCPNRIVQKGTQYSLCIFRTSNGRGWGVKTLVKIKRMSFVMEYVGEVITSEEAERRGQFYDNKGITYLFDLDYESDEFTVDAARYGNVSHFVNHSCDPNLQVFNVFIDNLDTRLPRIALFSTRTINAGEELTFDYQMKGSGDISSDSIDHSPAKKRVRTVCKCGAVTCRGYLN”, which “soluble on expression in E. coli” value is on record?
**A.** soluble

**Q.** Which “soluble on expression in E. coli” value does the source give for “MATIDLQKKSVKIVLEKKQLTKVTARVGLVLDITGSMRPLYKNGTVQNVVERILAVADQFDDNGLLDVWVYDNEFPRLKPVSEKDFPGYVDREILNNDRLHKFGRNDEPPVMKDVLRNMLRRNRARILLSLFLSMTGAVKSQSNRLIEASSDKPVFWQFVGIGNGNFDFLNKLDTLEGRVIDNTNFLHIEEIDRISDDELYDALLAEFPFWLKEAKEKGIVREQEPPAEKPKKKGFFSRLFSKLEHHHHHH” here?
**A.** soluble

**Q.** Which “soluble on expression in E. coli” value does the source give for “MRSELCCCRAVKRAAPEESIEEDDSYEDSDLEEGGSSYDEGTVDSESSAEDQEDKDVPVSEKKKRKLPSDVTEGKTVFIRNLSFDSEEEALGEVLQQFGDLKYVRVVLHPDTEHSKGCAFAQFMTQEAAQKCLAAASLEAEGGGLKLDGRQLKVDLAVTRDEAAKLQTKKVKKPTGTRNLYLAREGLIRAGTKAAEGVSAADMAKRERFELLKHQELKNQNIFVSQTRLCLHNLPKAVDDKQLRKLLLEATRGEKGVRIKECRVMRDLKGVHGKMKGQSLGYAFAEFQKHEHALRALRHFNNNPEIFGSQKRPIVEFSLEDRRKLKVKELRIQRSLQKMESKPVTSKPQKEQKEVGKDKQQKAVQSATQDQSKAPGEQKGKAGSTSWTGFQTKAEVEQVELPDGKKRRKVLALPSHRGPKIRLRDKGKVKSLPSRKPKPQMGQRKQKKQQLASSVQAPKRKAKENKAEARFNQLVEQYKQKLLGPSKGAPLMKRSKWFDS” here?
**A.** soluble

**Q.** For “MFKDFFNRTKKKKYLTVQDSKNNDVPAGIMTKCPKCKKIMYTKELAENLNVCFNCDHHIALTAYKRIEAISDEGSFTEFDKGMTSANPLDFPSYLEKIEKDQQKTGLKEAVVTGTAQLDGMKFGVAVMDSRFRMGSMGSVIGEKICRIIDYCTENRLPFILFSASGGARMQEGIISLMQMGKTSVSLKRHSDAGLLYISYLTHPTTGGVSASFASVGDINLSEPKALIGFAGRRVIEQTINEKLPDDFQTAEFLLEHGQLDKVVHRNDMRQTLSEILKIHQEVTK”, which “soluble on expression in E. coli” value is on record?
**A.** soluble

**Q.** Which “soluble on expression in E. coli” value does the source give for “MSLMKSSPLVRQASTEKESTKSENLTEYLIEAIVEGQLAPGSKISEPELAKQFQVSRGPLREALMRVEGLGLIERIPHIGARVIQLSPTKLVELYAVREALEGMAARLAARNITEIELAGLESLLSTHSTHIDQVEGASYFHQQGDFDFHYRIIQACRNQQLIGLLCDELYHLLRMYRYQSPRSHSRPVEALEEHKFILRAIRQRDEELAEMLMRRHISRSRQLIEQQIMLDAQQQGEGHHHHHH” here?
**A.** soluble

**Q.** With “MNEFEDLLNSVSEVNPGDVVTAEVLTVDGEQANLVIDGTGVEAVLTLRELTNDRNADINDFVKAGDKVEVLVLRQVVGKDTDTVTFLVSKKRLEARKAWDKLVGREGDVVTVKGTRAVKGGLSVEFEGLRGFIPASMIDTRFVRNTEKFVGQQFEAKIKEIDPSENRFILSRRDVVEAAAAKAREEVFSRLAVGDIVTGTVARLTSFGAFIDLGGVDGLVHITELSHERNVSPKSVVTVGEEIQVKVLAIDEEAGRVSLSLKATTPGPWDGVEQKLAAGDVIEGKVKRLTDFGAFVEVLPGIDGLVHISQISHKRVENPKDVLSVGQDVTVKVLDVNTADERVSLSIKALEERPAQDESNGEKRQSRPRRQKRQDKRDYELPETQTGFSMADLFGDIELLEHHHHHH” as the sequence, how does the “soluble on expression in E. coli” value read?
**A.** soluble
